Experimental data published in patent publication US20250388881A1, “METHOD FOR IMPROVING THERMOSTABILITY OF PHYTASE, MUTANT AND USE” (priority 2022, published 2025).

Columns and labels:
[1] = tested on: O=P(O)(O)O[C@H]1[C@H](OP(=O)(O)O)[C@@H](OP(=O)(O)O)[C@H](OP(=O)(O)O)[C@@H](OP(=O)(O)O)[C@H]1OP(=O)(O)O; experiment: Determination of dynamic parameters on sodium phytate: mutant G65R; format: biochemical, Yersinia intermedia; conditions: other: G65R, 37° C., pH 5.5, sodium phytate 0.05 to 1.00 mM
[2] = tested on: O=P(O)(O)O[C@H]1[C@H](OP(=O)(O)O)[C@@H](OP(=O)(O)O)[C@H](OP(=O)(O)O)[C@@H](OP(=O)(O)O)[C@H]1OP(=O)(O)O; experiment: Determination of dynamic parameters on sodium phytate: mutant G101C/V116C; format: biochemical, Yersinia intermedia; conditions: other: G101C/V116C, 37° C., pH 5.5, sodium phytate 0.05 to 1.00 mM
[3] = tested on: O=P(O)(O)O[C@H]1[C@H](OP(=O)(O)O)[C@@H](OP(=O)(O)O)[C@H](OP(=O)(O)O)[C@@H](OP(=O)(O)O)[C@H]1OP(=O)(O)O; experiment: Determination of dynamic parameters on sodium phytate: mutant A57C/A103C; format: biochemical, Yersinia intermedia; conditions: other: A57C/A103C, 37° C., pH 5.5, sodium phytate 0.05 to 1.00 mM
[4] = tested on: O=P(O)(O)O[C@H]1[C@H](OP(=O)(O)O)[C@@H](OP(=O)(O)O)[C@H](OP(=O)(O)O)[C@@H](OP(=O)(O)O)[C@H]1OP(=O)(O)O; experiment: Determination of dynamic parameters on sodium phytate: mutant R353C/L401C; format: biochemical, Yersinia intermedia; conditions: other: R353C/L401C, 37° C., pH 5.5, sodium phytate 0.05 to 1.00 mM
[5] = tested on: O=P(O)(O)O[C@H]1[C@H](OP(=O)(O)O)[C@@H](OP(=O)(O)O)[C@H](OP(=O)(O)O)[C@@H](OP(=O)(O)O)[C@H]1OP(=O)(O)O; experiment: Determination of dynamic parameters on sodium phytate: mutant R271C/E413C; format: biochemical, Yersinia intermedia; conditions: other: R271C/E413C, 37° C., pH 5.5, sodium phytate 0.05 to 1.00 mM
[6] = target: Yersinia intermedia phytase APPAmut4 (parent), SEQ ID NO: 1 (Yersinia intermedia, UniProt Q000T0, A346L/M382L/V109D/Y74E); experiment: Determination of dynamic parameters on sodium phytate: phytase APPAmut4; format: biochemical; conditions: 37° C., pH 5.5, sodium phytate 0.05 to 1.00 mM
[7] = target: Yersinia intermedia phytase APPAmut4 (SEQ ID NO: 1) mutant A147C/Y268C (Yersinia intermedia, UniProt Q000T0, A170C/A346L/M382L/V109D/Y291C/Y74E); experiment: Determination of dynamic parameters on sodium phytate: mutant A147C/Y268C; format: biochemical; conditions: 37° C., pH 5.5, sodium phytate 0.05 to 1.00 mM
[8] = target: Yersinia intermedia phytase APPAmut4 (SEQ ID NO: 1) mutant G65R (Yersinia intermedia, UniProt Q000T0, A346L/G88R/M382L/V109D/Y74E); experiment: Determination of dynamic parameters on sodium phytate: mutant G65R; format: biochemical; conditions: 37° C., pH 5.5, sodium phytate 0.05 to 1.00 mM
[9] = tested on: O=P(O)(O)O[C@H]1[C@H](OP(=O)(O)O)[C@@H](OP(=O)(O)O)[C@H](OP(=O)(O)O)[C@@H](OP(=O)(O)O)[C@H]1OP(=O)(O)O; experiment: Determination of dynamic parameters on sodium phytate: mutant G365D; format: biochemical, Yersinia intermedia; conditions: other: G365D, 37° C., pH 5.5, sodium phytate 0.05 to 1.00 mM
[10] = tested on: O=P(O)(O)O[C@H]1[C@H](OP(=O)(O)O)[C@@H](OP(=O)(O)O)[C@H](OP(=O)(O)O)[C@@H](OP(=O)(O)O)[C@H]1OP(=O)(O)O; experiment: Determination of dynamic parameters on sodium phytate: mutant E282L; format: biochemical, Yersinia intermedia; conditions: other: E282L, 37° C., pH 5.5, sodium phytate 0.05 to 1.00 mM
[11] = tested on: O=P(O)(O)O[C@H]1[C@H](OP(=O)(O)O)[C@@H](OP(=O)(O)O)[C@H](OP(=O)(O)O)[C@@H](OP(=O)(O)O)[C@H]1OP(=O)(O)O; experiment: Determination of dynamic parameters on sodium phytate: phytase APPAmut4; format: biochemical, Yersinia intermedia; conditions: other: APPAmut4, 37° C., pH 5.5, sodium phytate 0.05 to 1.00 mM
[12] = tested on: O=P(O)(O)O[C@H]1[C@H](OP(=O)(O)O)[C@@H](OP(=O)(O)O)[C@H](OP(=O)(O)O)[C@@H](OP(=O)(O)O)[C@H]1OP(=O)(O)O; experiment: Determination of dynamic parameters on sodium phytate: mutant A147C/Y268C; format: biochemical, Yersinia intermedia; conditions: other: A147C/Y268C, 37° C., pH 5.5, sodium phytate 0.05 to 1.00 mM

Yersinia intermedia phytase APPAmut4 (SEQ ID NO: 1) mutant G65R (Yersinia intermedia; A346L/G88R/M382L/V109D/Y74E)
Km [1]: 220 ± 40 µM
Vmax [1]: 2630 µmol/min/mg
kcat [1]: 2000 ± 77 s⁻¹
kcat/Km [1]: 9.01e+06 ± 992000 M⁻¹ s⁻¹

Yersinia intermedia phytase APPAmut4 (SEQ ID NO: 1) mutant G101C/V116C (Yersinia intermedia; A346L/G124C/M382L/V109D/V139C/Y74E)
Km [2]: 200 ± 30 µM
Vmax [2]: 2930 µmol/min/mg
kcat [2]: 2230 ± 119 s⁻¹
kcat/Km [2]: 1.11e+07 ± 1.13e+06 M⁻¹ s⁻¹

Yersinia intermedia phytase APPAmut4 (SEQ ID NO: 1) mutant A57C/A103C (Yersinia intermedia; A126C/A346L/A80C/M382L/V109D/Y74E)
Km [3]: 180 ± 30 µM
Vmax [3]: 2840 µmol/min/mg
kcat [3]: 2160 ± 130 s⁻¹
kcat/Km [3]: 1.21e+07 ± 1.37e+06 M⁻¹ s⁻¹

Yersinia intermedia phytase APPAmut4 (SEQ ID NO: 1) mutant R353C/L401C (Yersinia intermedia; A346L/L424C/M382L/R376C/V109D/Y74E)
Km [4]: 200 ± 20 µM
Vmax [4]: 3400 µmol/min/mg
kcat [4]: 2580 ± 124 s⁻¹
kcat/Km [4]: 1.29e+07 ± 955000 M⁻¹ s⁻¹

Yersinia intermedia phytase APPAmut4 (SEQ ID NO: 1) mutant R271C/E413C (Yersinia intermedia; A346L/E436C/M382L/R294C/V109D/Y74E)
Km [5]: 180 ± 30 µM
Vmax [5]: 3180 µmol/min/mg
kcat [5]: 2410 ± 154 s⁻¹
kcat/Km [5]: 1.34e+07 ± 1.54e+06 M⁻¹ s⁻¹

O=P(O)(O)O[C@H]1[C@H](OP(=O)(O)O)[C@@H](OP(=O)(O)O)[C@H](OP(=O)(O)O)[C@@H](OP(=O)(O)O)[C@H]1OP(=O)(O)O [sodium phytate]
kcat/Km [6]: 1.2322e+07 M⁻¹ s⁻¹
kcat/Km [7]: 1.0823e+07 M⁻¹ s⁻¹
kcat/Km [8]: 9.009e+06 M⁻¹ s⁻¹

Yersinia intermedia phytase APPAmut4 (SEQ ID NO: 1) mutant G365D (Yersinia intermedia; A346L/G388D/M382L/V109D/Y74E)
Km [9]: 140 ± 20 µM
Vmax [9]: 2410 µmol/min/mg
kcat [9]: 1830 ± 58 s⁻¹
kcat/Km [9]: 1.32e+07 ± 1.15e+06 M⁻¹ s⁻¹

Yersinia intermedia phytase APPAmut4 (SEQ ID NO: 1) mutant E282L (Yersinia intermedia; A346L/E305L/M382L/V109D/Y74E)
Km [10]: 150 ± 20 µM
Vmax [10]: 2300 µmol/min/mg
kcat [10]: 1750 ± 67 s⁻¹
kcat/Km [10]: 1.13e+07 ± 967000 M⁻¹ s⁻¹

Yersinia intermedia phytase APPAmut4 (parent), SEQ ID NO: 1 (Yersinia intermedia; A346L/M382L/V109D/Y74E)
Km [11]: 140 ± 30 µM
Vmax [11]: 2270 µmol/min/mg
kcat [11]: 1720 ± 72 s⁻¹
kcat/Km [11]: 1.23e+07 ± 1.58e+06 M⁻¹ s⁻¹

Yersinia intermedia phytase APPAmut4 (SEQ ID NO: 1) mutant A147C/Y268C (Yersinia intermedia; A170C/A346L/M382L/V109D/Y291C/Y74E)
Km [12]: 220 ± 30 µM
Vmax [12]: 3140 µmol/min/mg
kcat [12]: 2380 ± 124 s⁻¹
kcat/Km [12]: 1.08e+07 ± 1.02e+06 M⁻¹ s⁻¹
